# Positions count from the first letter of the chain named.
# B1: humanized anti-TrkA antibody 42F5-01 (antibody, V domains shown)
# VH: QVQLVQSGAEVKKPGASVKVSCKSSGYTFTNYWMHWVRQAPGQGLEWMGEIYPNNGRVNYNEKFKNRVTMTVDISISTAYMELSRLRSDDTAVYYCARSRYDPMEDWGQGTTVTVSS
# VL: DVQLTQSPSSLSASVGDRVTITCSASSSVGYMHWYQQKPGKAPKRLIYDTSKLASGVPSRFSGSGSGTDYTLTISSLQPEDFATYFCQQWSSIPLTFGQGTRLEIK
# notes: VH grafted to human IgG4 heavy chain constant region, VL to human Kappa light chain constant region; also called 43F5-01 [sic]
# B2: humanized anti-TrkA antibody 42F5-11 (antibody, V domains shown)
# VH: B1 VH with M48I, V68A, M70L
# VL: EVVLTQSPATLSLSPGERATLSCSASSSVGYMHWYQQKPGQAPRRWIYDTSKLASGVPARFSGSGSGTDYTLTISSLEPEDAAVYFCQQWSSIPLTFGQGTRLEIK
# notes: VH grafted to human IgG4 heavy chain constant region, VL to human Kappa light chain constant region
# B3: humanized anti-TrkA antibody 42F5-08 (antibody, V domains shown)
# VH: B1 VH with A16S, M48I, V68A, M70L, I76T, R85S, D89E
# VL: B1 VL with D1Q, L46W
# notes: VH grafted to human IgG4 heavy chain constant region, VL to human Kappa light chain constant region; also called 43F5-08 [sic]
# B4: humanized anti-TrkA antibody 42F5-13 (antibody, V domains shown)
# VH: B1 VH with N55S
# VL: B1 VL
# notes: 42F5-01 with NG55-56 of the VH mutated to SG55-56
# B5: humanized anti-TrkA antibody 42F5-05 (antibody, V domains shown)
# VH: B1 VH
# VL: B1 VL with D1Q
# notes: as for B2
# B6: humanized anti-TrkA antibody 42F5-14 (antibody, V domains shown)
# VH: B1 VH with N55Q
# VL: B1 VL
# notes: 42F5-01 with NG55-56 of the VH mutated to QG55-56
# B7: human-mouse chimeric antibody 42F5-Chi (antibody, V domains shown)
# VH: QVQLQQPGAELVKPGASVKLSCKSSGYTFTNYWMHWVRQRPGQGLEWIGEIYPNNGRVNYNEKFKNRATLTVDISSSTAYMQLSSLTSEDSAVYYCARSRYDPMEDWGQGTSVTVSS
# VL: QVVLTQSPAIMSASPGEKVTMTCSASSSVGYMHWYQQKSGTSPKRWIYDTSKLASGVPTRFSGSGSGTSYSLTISSMEAEDAATYFCQQWSSIPLTFGSGTRLEIK
# Biological target: T1, full-length human TrkA expressed on cells (human, UniProt P04629 33-796)
# T1 sequence (P04629 33-796): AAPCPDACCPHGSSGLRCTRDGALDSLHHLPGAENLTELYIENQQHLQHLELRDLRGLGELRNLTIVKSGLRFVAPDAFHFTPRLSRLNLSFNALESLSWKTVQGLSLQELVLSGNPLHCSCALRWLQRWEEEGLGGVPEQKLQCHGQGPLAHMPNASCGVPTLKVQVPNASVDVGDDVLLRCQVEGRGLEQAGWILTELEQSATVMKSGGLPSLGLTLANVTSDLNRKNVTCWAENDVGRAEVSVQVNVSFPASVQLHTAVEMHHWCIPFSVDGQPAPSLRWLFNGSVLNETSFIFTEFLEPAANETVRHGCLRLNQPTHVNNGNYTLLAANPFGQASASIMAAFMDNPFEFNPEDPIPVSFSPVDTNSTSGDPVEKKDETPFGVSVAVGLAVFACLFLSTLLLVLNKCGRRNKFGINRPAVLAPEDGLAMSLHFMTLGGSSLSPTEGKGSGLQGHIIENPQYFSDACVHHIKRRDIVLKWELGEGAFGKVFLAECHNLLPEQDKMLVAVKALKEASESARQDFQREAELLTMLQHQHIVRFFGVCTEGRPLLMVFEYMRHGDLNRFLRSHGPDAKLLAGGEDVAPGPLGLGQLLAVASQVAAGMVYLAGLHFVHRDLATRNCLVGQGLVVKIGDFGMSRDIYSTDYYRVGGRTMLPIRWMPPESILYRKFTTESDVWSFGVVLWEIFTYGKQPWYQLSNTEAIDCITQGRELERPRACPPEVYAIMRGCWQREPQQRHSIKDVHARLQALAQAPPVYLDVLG
# Assay: cell-based or functional assay
row,IC50 of inhibiting NGF-induced TF-1 cell proliferation [nM],Binder
1,1.57,B1
2,1.4,B2
3,1.65,B3
4,0.867,B4
5,1.48,B5
6,1.94,B6
7,1.55,B7

# Biological target: T1, full-length human TrkA expressed on …
# Assay: cell-based or functional assay
# Remark: another data set of the same source
row,IC50 of inhibiting NGF-induced TrkA/Ba/F3 cell proliferation [nM],Binder
1,2.97,B1
2,2.81,B2
3,3.54,B3
4,3.31,B4
5,4.42,B5
6,3.27,B6
7,2.92,B7

# Biological target: T1, full-length human TrkA expressed on …
# Assay: flow cytometry titration on TrkA/CHO cells
# Description: (§1) The cells were cultured according to the manufacturer's instruction. The cells were harvested in the logarithmic growth phase, re-suspended in flow buffer (PBS+2% FBS, pH 7.4), and added into 96-well plate, 10^5 cells per well (50 µl). 50 µl of 100 µg/mL humanized anti-TrkA antibody was added, incubated at room temperature for 60 min, and centrifuged at 1200 rpm. The supernatant was discarded and the cells were washed 3 times. FITC-labeled goat anti-human Fc antibody (Abeam, ab97224) was diluted to 5 µg/mL with flow buffer and used to re-suspend the cells, incubated at room temperature for 30 min in the dark, centrifuged, and the supernatant was discarded. After washing 3 times, the cells were re-suspended with 7AAD solution (Biolegend, 420403), incubated for 10 min at room temperature, and the binding of the antibody was detected with a flow cytometer (BioRad, ZE5).
# The binding curve of the humanized anti-TrkA antibodies and TrkA/CHO cells was detected with the same flow cytometry.
row,EC50 [nM],Binder
1,0.605,B1
2,0.513,B2
3,0.535,B3
4,0.518,B4
5,0.68,B5
6,0.547,B6
7,0.49,B7

# Biological target: T2, human TrkA extracellular region (33-417) protein containing mouse Fc (human, UniProt P04629 33-417)
# T2 construct: range 33-417
# T2 sequence (P04629 33-417 limits assumed): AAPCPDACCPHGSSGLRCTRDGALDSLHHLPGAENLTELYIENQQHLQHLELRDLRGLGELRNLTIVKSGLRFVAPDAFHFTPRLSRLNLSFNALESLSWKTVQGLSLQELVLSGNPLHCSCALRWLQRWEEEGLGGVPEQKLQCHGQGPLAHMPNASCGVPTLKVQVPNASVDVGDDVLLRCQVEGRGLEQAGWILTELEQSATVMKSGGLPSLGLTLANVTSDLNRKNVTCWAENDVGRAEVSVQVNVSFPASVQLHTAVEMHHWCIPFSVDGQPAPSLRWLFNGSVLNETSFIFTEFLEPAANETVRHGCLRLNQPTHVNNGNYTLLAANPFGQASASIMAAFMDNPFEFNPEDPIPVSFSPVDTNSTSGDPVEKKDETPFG
# Assay: ELISA, coated human TrkA (33-417)-mouse Fc, anti-human IgG-HRP
# Description: Each well of a 96-well microtiter plate was coated with 50 ng of human TrkA, washed and blocked, then added with serially diluted humanized antibodies, and incubated for 1 hour at room temperature. After washing three times, horseradish peroxidase-conjugated goat anti-human IgG antibody (ThermoFisher, A18817) was added and reacted at room temperature for 1 hour. After washing three time, tetramethylbenzidine (TMB, Biolegend) was added for color development. 1M HCl was used to terminate the color development, and the absorbance values were read at 450 nm with a microplate reader.
row,EC50 [nM],Binder
1,0.061,B1
2,0.05,B2
3,0.055,B3
4,0.087,B4
5,0.072,B5
6,0.071,B6
7,0.062,B7

# Biological target: T3, human TrkB expressed on CHO cells (TrkB/CHO, ThermoFisher K1491) (human, UniProt Q16620 32-822)
# T3 construct: whole, on cells
# T3 sequence (Q16620 32-822): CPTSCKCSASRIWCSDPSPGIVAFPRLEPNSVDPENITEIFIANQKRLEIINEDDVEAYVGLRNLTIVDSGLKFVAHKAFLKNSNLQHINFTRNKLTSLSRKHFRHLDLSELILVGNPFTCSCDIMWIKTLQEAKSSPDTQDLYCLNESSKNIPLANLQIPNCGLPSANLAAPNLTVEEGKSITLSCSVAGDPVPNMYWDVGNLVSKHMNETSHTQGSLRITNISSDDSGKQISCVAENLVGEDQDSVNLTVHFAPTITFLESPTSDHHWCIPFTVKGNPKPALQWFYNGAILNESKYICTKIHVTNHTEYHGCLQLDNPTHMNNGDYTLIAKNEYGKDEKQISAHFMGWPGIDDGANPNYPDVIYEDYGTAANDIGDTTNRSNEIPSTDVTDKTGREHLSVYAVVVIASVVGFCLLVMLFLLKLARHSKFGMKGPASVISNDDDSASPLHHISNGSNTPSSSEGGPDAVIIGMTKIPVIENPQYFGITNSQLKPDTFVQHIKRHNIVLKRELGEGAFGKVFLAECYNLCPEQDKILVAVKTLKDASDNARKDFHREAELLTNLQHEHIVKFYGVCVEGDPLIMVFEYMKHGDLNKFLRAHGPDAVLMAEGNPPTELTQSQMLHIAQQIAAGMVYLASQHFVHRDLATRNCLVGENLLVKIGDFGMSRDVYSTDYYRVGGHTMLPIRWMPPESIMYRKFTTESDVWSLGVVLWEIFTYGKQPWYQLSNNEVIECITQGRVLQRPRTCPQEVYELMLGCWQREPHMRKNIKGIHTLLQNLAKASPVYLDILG
# Assay: flow cytometry on TrkB/CHO cells, FITC goat anti-human Fc
# Description: (§2) CHO-K1 was used as a negative control. The binding of the humanized antibodies to the four cell lines was detected by flow cytometry.
# as §1
row,binding result,Binder
1,no binding,B1
2,no binding,B2
3,no binding,B3
4,no binding,B4
5,no binding,B5
6,no binding,B6
7,no binding,B7

# Biological target: T4, human TrkC expressed on CHO cells (TrkC/CHO, ThermoFisher K1515) (human, UniProt Q16288 32-839)
# T4 construct: whole, on cells
# T4 sequence (Q16288 32-839): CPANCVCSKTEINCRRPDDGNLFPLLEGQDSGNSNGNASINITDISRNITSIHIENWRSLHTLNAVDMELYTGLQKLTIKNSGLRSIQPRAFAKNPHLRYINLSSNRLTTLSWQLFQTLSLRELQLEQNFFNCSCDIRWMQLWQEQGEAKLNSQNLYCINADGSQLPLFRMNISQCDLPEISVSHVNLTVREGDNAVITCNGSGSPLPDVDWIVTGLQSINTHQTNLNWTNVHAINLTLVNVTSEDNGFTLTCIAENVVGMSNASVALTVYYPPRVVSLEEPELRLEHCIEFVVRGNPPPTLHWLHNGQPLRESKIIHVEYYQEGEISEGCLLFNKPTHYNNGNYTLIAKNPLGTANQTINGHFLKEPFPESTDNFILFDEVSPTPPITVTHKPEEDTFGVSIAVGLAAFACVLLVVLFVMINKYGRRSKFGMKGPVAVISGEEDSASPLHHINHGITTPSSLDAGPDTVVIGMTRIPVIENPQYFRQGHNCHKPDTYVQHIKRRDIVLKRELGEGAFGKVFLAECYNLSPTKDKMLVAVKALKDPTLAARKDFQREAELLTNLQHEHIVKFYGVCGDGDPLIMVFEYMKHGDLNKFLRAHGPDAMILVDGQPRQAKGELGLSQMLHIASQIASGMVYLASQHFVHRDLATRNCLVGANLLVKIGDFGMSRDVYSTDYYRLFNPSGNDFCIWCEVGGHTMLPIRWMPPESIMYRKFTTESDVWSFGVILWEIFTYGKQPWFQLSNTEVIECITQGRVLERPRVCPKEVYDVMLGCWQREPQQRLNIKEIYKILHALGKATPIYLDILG
# Assay: flow cytometry on TrkC/CHO cells, FITC goat anti-human Fc
# Description: as §2, §1
row,binding result,Binder
1,no binding,B1
2,no binding,B2
3,no binding,B3
4,no binding,B4
5,no binding,B5
6,no binding,B6
7,no binding,B7

# From patent publication US12590158 (XIYUAN ANJIAN MEDICINE SHANGHAI, dated 2026)
